# Patent US20140308291A1 (INTEGRATED BIOTHERAPEUTICS, published 2014)
# Molecular target: T1, wild-type gamma hemolysin B subunit (HlgB) (Staphylococcus aureus, UniProt Q2FVK1 27-325)
# T1 construct: also called Gamma B; gamma hemolysin component B
# T1 sequence: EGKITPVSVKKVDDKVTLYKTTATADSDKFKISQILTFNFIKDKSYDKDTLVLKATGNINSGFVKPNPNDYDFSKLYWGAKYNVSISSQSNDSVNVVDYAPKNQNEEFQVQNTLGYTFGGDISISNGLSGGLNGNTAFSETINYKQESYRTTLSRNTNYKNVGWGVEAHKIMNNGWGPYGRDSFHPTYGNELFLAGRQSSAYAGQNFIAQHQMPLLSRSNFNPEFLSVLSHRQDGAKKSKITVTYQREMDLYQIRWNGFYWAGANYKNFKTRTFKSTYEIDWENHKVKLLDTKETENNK
# Assay: MPD-based oligomerization assay (40% MPD, 24 hours), SDS-PAGE without boiling
binder,measurement,value
LukS-PV triple mutant T28F/K97A/S209A (Mut9) (other) HHHHHHDNNIENIGDGAEVVKRTEDTSSDKWGVFQNIQFDFVKDKKYNKDALILKMQGFINSKTTYYNYKNTDHIKAMRWPFQYNIGLKTNDPNVDLINYLPANKIDSVNVSQTLGYNIGGNFNSGPSTGGNGSFNYSKTISYNQQNYISEVEHQNSKSVQWGIKANSFITSLGKMSGHDPNLFVGYKPYSQNPRDYFVPDNELPPLVHSGFNPAFIATVSHEKGSGDTSEFEITYGRNMDVTHATRRTTHYGNSYLEGSRIHNAFVNRNYTVKYEVNWKTHEIKVKGHN,binding result,no binding
